In data set [1] the target is T1, His-ABI5 (UniProt Q9SJN0 1-442).
T1 sequence: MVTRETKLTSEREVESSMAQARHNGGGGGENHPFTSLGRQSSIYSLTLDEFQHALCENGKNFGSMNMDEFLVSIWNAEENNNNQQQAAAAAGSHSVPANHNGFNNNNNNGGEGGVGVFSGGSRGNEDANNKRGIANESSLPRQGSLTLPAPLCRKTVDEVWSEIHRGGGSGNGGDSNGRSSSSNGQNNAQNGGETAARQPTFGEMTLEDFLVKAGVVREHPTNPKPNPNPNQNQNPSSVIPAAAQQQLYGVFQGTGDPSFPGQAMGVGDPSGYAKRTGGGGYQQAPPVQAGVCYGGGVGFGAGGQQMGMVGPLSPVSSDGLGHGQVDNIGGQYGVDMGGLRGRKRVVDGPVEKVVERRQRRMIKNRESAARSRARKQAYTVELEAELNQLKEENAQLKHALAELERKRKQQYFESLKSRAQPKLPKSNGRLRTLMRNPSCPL
The data set can be described thus: EMSA; suppressed by 50x and 100x unlabeled probe; Chemiluminescent EMSA Kit (Beyotime); binding buffer, salt, pH and temperature not stated (protein eluted in 100 mM HEPES, 500 mM imidazole, pH 7.5). The conditions noted are these: protein: recombinant; tags: His (pET-30a); label: biotin; blunt. Background: In EMSA bound probe runs differently from free probe, usually more slowly.

Data set [2] addresses T1, His-ABI5. The data set is described as follows: competition; 100x unlabeled mutated competitor against labeled N1; Chemiluminescent EMSA Kit (Beyotime); binding buffer, salt, pH and temperature not stated (protein eluted in 100 mM HEPES, 500 mM imidazole, pH 7.5). The conditions noted are these: protein: recombinant; tags: His (pET-30a); blunt.

Where a chain is given by its changes, count along the chain named.

B1: proPME31 probe (50 bp) (dsDNA)
DNA 1: TTGAACAAAGAACTGTTACACGTAGAACCAAACAATATGATGAAAAGTAT
DNA 2: ATACTTTTCATCATATTGTTTGGTTCTACGTGTAACAGTTCTTTGTTCAA
For the molecule B1, the binding result with His-ABI5 [1] is “binds”.

B2: proPME31 mutated probe (mComp) (dsDNA)
DNA 1: B1 DNA 1 with C19A, C21A, G22A, T23A
DNA 2: B1 DNA 2 with A28T, C29T, G30T, G32T
Consider B2, for which, in the data set with His-ABI5 [2], the binding result was “no binding”.

Source of the values: publication PMC10869471, “Pectin methylesterase 31 is transcriptionally repressed by ABI5 to negatively regulate ABA-mediated inhibition of seed germination”.
